Assay results taken from patent US6998254, “Use of ROR for receptors for screening substances useful for the treatment of atherosclerosis” (Merck Patent Gesellschaft).

Columns and labels:
Conditions in all cases: tags: TnT T7 reticulocyte lysate from pCMX-hRORα1
hRORα1 (RORA isoform 1) [1] = molecular target: T1, hRORα1 (RORA isoform 1) (Homo sapiens, UniProt P35398 P35398:1-523); test: competition; unlabelled competitor 10-100x
T1 sequence: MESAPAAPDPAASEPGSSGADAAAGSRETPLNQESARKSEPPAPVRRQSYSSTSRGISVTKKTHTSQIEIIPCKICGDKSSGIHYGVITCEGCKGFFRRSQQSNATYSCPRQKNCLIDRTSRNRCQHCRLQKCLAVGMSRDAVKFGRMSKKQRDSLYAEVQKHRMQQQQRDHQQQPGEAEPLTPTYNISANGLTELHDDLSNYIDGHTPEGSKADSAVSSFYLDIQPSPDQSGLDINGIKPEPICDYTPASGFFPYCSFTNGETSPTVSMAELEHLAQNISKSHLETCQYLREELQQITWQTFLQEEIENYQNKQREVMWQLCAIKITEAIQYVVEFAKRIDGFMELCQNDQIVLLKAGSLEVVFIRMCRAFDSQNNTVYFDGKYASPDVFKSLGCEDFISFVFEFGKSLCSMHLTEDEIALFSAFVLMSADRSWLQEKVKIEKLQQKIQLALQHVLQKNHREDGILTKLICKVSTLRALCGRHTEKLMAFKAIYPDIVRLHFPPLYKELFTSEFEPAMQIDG
Description: (§1) During the competition experiments, increasing concentrations of nonlabelled double-stranded oligo-nucleotides (molar excess of 10 to 100 fold) were added to the mixtures and incubated for 15 min at room temperature before the addition of the radioactive probes. After addition of the radioactive probes, the reticulocyte lysates were added to the mixture and incubated for 15 min at room temperature before the separation of the protein/DNA complexes by electrophoresis on a polyacrylamide gel (4%) in a 0.25× Tris-borate-EDTA buffer at room temperature (50).
In this figure, fragment −90/−64 of the promoter of the human gene for apo C-III was phosphorylated at the 5' ends with polynucleotide kinase in the presence of [γ-^32P]ATP. This probe was incubated in the presence of reticuloycte lysate ("TNT-T7", Promega) programmed to express the hRORα1 receptor according to the protocol defined by the manufacturer or in the presence of control lysate. The DNA/protein complexes were then separated on nondenaturing polyacrylamide gel. After drying, the gel is subjected to autoradiography. The first lane of the gel corresponds to the migration of the probe incubated in the presence of control lysate. The other lanes correspond to the migration of the probe incubated in the presence of lysate programmed to express hRORα1. […]

hRORα1 (RORA isoform 1) [2] = molecular target: T1, hRORα1 (RORA isoform 1); test: competition; unlabelled competitor 10-100x; remark: listed apart in the source
hRORα1 (RORA isoform 1) [3] = molecular target: T1, hRORα1 (RORA isoform 1); test: competition; 10-100x excess does not compete
Description: as §1
In FIG. 7, the −198/+24 fragment of the promoter of the human gene for apo C-III was amplified by PCR with the aid of the primers 82 and 512 (Table 1) previously phosphoryiated at the 5' end by poly-nucleotide kinase in the presence of [γ-^32P]ATP. This probe was incubated in the presence of reticulocyte lysate (TNT-T7, Promega) programmed to express the hRORα1 receptor according to the protocol defined by the manufacturer or in the presence of control lysate. The DNA/protein complexes were then separated on a non denaturing polyacrylamide gel. After drying, the gel is subjected to autoradiography. The first lane of the gel corresponds to the migration of the probe alone. The second lane corresponds to the migration of the probe incubated in the presence of the control lysate. […]

B1: RORECons (dsDNA)
DNA 1: GATCTTGACCTACATTCTAAGCTG
DNA 2: GATCCAGCTTAGAATGTAGGTCAA
binding result (hRORα1 (RORA isoform 1) [1]): binds

B2: rAITaTaWT (-36/-12) (dsDNA)
DNA 1: GATCCACACATATATAGGTCAGGGAAGAAGA
DNA 2: GATCTCTTCTTCCCTGACCTATATATGTGTG
binding result (hRORα1 (RORA isoform 1) [2]): binds

B3: hCIIITaTaKO (-33/-10) (dsDNA)
DNA 1: GATCGATATAAAACAGGCAGGAACCCTC
DNA 2: GATCGAGGGTTCCTGCCTGTTTTATATC
binding result (hRORα1 (RORA isoform 1) [3]): no binding
